Data from publication PMC12329532, “GAPDH heme delivery to Indoleamine 2,3-dioxygenase 1 involves their complex formation and complementary charge pairing at the protein-protein interface” (The Journal of Biological Chemistry, 2025).
One block for each binder: values may come before it.

Assays:
[1] = biological target: FLAG-tagged IDO1 K101A expressed in HEK293T cells (human, UniProt P14902 1-403, K101A); assay: cell-based or functional assay
[2] = biological target: FLAG-tagged IDO1 K101D expressed in HEK293T cells (human, UniProt P14902 1-403, K101D); assay: cell-based or functional assay
[3] = biological target: T1, N-terminally His6-tagged human IDO1 (indoleamine 2,3-dioxygenase 1), purified apo-IDO1 (human, UniProt P14902 1-403, Alexa Fluor 488 on Cys groups (in the fluorescence polarisation assay only)); assay: cross-linking; proteins bound to each other at RT for 30 min, then 100-fold excess of DSSO for 15 min at RT; 50 mM HEPES pH 7.4, 100 mM NaCl; trypsin digest and MS-cleavable XL-MS; conditions: both partners purified
T1 construct: human indoleamine 2,3-dioxygenase 1, cloned in the pHis-parallel1 vector; About 0.1 mol residual heme per mol protein; no effort was made to remove it; also called His6-IDO1; wild-type purified IDO1; source: E. coli BL21 (DE3), purified (Ni-NTA)
T1 sequence (P14902 whole entry): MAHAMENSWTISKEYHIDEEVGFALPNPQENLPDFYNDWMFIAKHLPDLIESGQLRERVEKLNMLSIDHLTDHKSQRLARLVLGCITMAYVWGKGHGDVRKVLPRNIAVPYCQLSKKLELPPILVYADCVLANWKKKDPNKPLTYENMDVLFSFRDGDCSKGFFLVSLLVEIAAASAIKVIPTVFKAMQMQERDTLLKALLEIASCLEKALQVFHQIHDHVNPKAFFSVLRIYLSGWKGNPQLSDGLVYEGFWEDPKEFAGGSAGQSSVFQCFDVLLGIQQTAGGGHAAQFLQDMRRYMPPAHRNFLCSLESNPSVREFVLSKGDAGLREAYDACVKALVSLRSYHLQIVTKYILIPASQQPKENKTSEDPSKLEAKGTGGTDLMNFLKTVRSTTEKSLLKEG

Sequence of FLAG-tagged IDO1 K101D expressed in HEK293T cells (P14902 whole entry K101D): as the sequence (P14902 whole entry) above, with K101D counted along it
Sequence of FLAG-tagged IDO1 K101A expressed in HEK293T cells (P14902 whole entry K101A): as the sequence (P14902 whole entry) above, with K101A counted along it

14C heme counts in the IDO1 immunoprecipitates, relative to wild-type IDO1 [1]: 68 % decrease | IDO1 catalytic activity of cell supernatants, relative to wild type [1]: 65 % reduced | L-Kyn buildup in the culture medium over a 5 h period, relative to wild-type IDO1 [1]: ~60 % less | 14C heme counts in the IDO1 immunoprecipitates, relative to wild-type IDO1 [2]: 68 % decrease | IDO1 catalytic activity of cell supernatants, relative to wild type [2]: 65 % reduced | L-Kyn buildup in the culture medium over a 5 h period, relative to wild-type IDO1 [2]: ~60 % less
B1: GAPDH of HEK293T cells (native) (enzyme)
chain: not shown

binding result [3]: binds
B2: rabbit GAPDH protein (Sigma #G2267) (enzyme)
chain: not shown
notes: rabbit glyceraldehyde 3-phosphate dehydrogenase; MS data were searched against P46406; The printed cross-linked residues K334 and K215 fit human GAPDH P04406; also called glyceraldehyde 3-phosphate dehydrogenase; source: bought: Sigma #G2267
